From patent US20140303084A1 (Biogen, published 2014)
Square brackets hold non-standard residues; d marks the D form. Primed or numbered codes have the meaning given here. Side chains are listed from the residue outwards. Ends that are not written are not given here. * marks the point of attachment. Biotin = O=C1N[C@H]2[C@H](CS[C@H]2CCCCC(=O)*)N1; NMeW = CN[C@@H](Cc1c[nH]c2ccccc12)C(=O)O; NMeY = CN[C@@H](Cc1ccc(O)cc1)C(=O)O; NMeF = CN[C@@H](Cc1ccccc1)C(=O)O; NMeT = CN[C@H](C(=O)O)[C@@H](C)O; NMeL = CN[C@@H](CC(C)C)C(=O)O; NMeK = CN[C@@H](CCCCN)C(=O)O; NMeS = CN[C@@H](CO)C(=O)O; PEG12′ = not defined here; NMeA = CN[C@@H](C)C(=O)O; Orn = NCCC[C@H](N)C(=O)O; PEG2″ = not defined here; Dab = NCC[C@H](N)C(=O)O; Dap = NC[C@H](N)C(=O)O

B1: KLTCLaSYCWLF (peptide)
peptide: KLTCL[dA]SYCWLF
modifications: not fully specified (bridges); printed as KLTCLaSYCWLF; cysteine pairing not given here
B2: compound 10 (peptide)
peptide: [dK][NMeL]TCLASYCWLFWTGIA-NH2
modifications: cysteine pairing not given here
B3: KLTCLASY-Pen-WLF (peptide)
peptide: KLTCLASYXWLF
modifications: not fully specified; Pen 9
B4: KKKKLTCLASYCWLFKKK (peptide)
peptide: KKKKLTCLASYCWLFKKK
B5: KLTCL-MeAla-SYCWLF (peptide)
peptide: KLTCL[NMeA]SYCWLF
modifications: cysteine pairing not given here
B6: KLT-Orn-LASY-Glu-WLF-CONH2 (peptide)
peptide: KLT[Orn]LASYEWLF-NH2
modifications: N-terminus assumed
SMILES: CC(C)C[C@H](NC(=O)[C@H](CCCN)NC(=O)[C@@H](NC(=O)[C@H](CC(C)C)NC(=O)[C@@H](N)CCCCN)[C@@H](C)O)C(=O)N[C@@H](C)C(=O)N[C@@H](CO)C(=O)N[C@@H](Cc1ccc(O)cc1)C(=O)N[C@@H](CCC(=O)O)C(=O)N[C@@H](Cc1c[nH]c2ccccc12)C(=O)N[C@@H](CC(C)C)C(=O)N[C@@H](Cc1ccccc1)C(N)=O
B7: KL-MeThr-CLASYCWLF (peptide)
peptide: KL[NMeT]CLASYCWLF
modifications: cysteine pairing not given here
B8: KLT-Glu-LASY-Dap-WLF (peptide)
peptide: KLTELASY[Dap]WLF
modifications: not fully specified; printed as KLT-Glu-LASY-Dap-WLF
B9: KAACLASACWLA (peptide)
peptide: KAACLASACWLA
B10: AIGTWFLWCYSALCTLKGPARR (retro) (peptide)
peptide: AIGTWFLWCYSALCTLKGPARR
modifications: not fully specified; printed as AIGTWFLWCYSALCTLKGPARR (retro); cysteine pairing not given here
B11: KLTALASYAWLF (peptide)
peptide: KLTALASYAWLF
B12: KLT-Orn-LASY-Glu-WLF-COOH (peptide)
peptide: KLT[Orn]LASYEWLF-OH
modifications: N-terminus assumed
SMILES: CC(C)C[C@H](NC(=O)[C@H](CCCN)NC(=O)[C@@H](NC(=O)[C@H](CC(C)C)NC(=O)[C@@H](N)CCCCN)[C@@H](C)O)C(=O)N[C@@H](C)C(=O)N[C@@H](CO)C(=O)N[C@@H](Cc1ccc(O)cc1)C(=O)N[C@@H](CCC(=O)O)C(=O)N[C@@H](Cc1c[nH]c2ccccc12)C(=O)N[C@@H](CC(C)C)C(=O)N[C@@H](Cc1ccccc1)C(=O)O
B13: KLTCLASACWLF (peptide)
peptide: KLTCLASACWLF
B14: K-MeLeu-TCLASYCWLF (peptide)
peptide: K[NMeL]TCLASYCWLF
modifications: cysteine pairing not given here
B15: KLTALASYCWLF (peptide)
peptide: KLTALASYCWLF
B16: KLTCLASYCWL-MePhe (peptide)
peptide: KLTCLASYCWL[NMeF]
modifications: cysteine pairing not given here
B17: RRRKLTCLASYCWLFRRR (peptide)
peptide: RRRKLTCLASYCWLFRRR
B18: KLTCLASYC (peptide)
peptide: KLTCLASYC
B19: KLTSLASYSWLF (peptide)
peptide: KLTSLASYSWLF
B20: KLTC-MeLeu-ASYCWLF (peptide)
peptide: KLTC[NMeL]ASYCWLF
modifications: cysteine pairing not given here
B21: MeLys-LTCLASYCWLF (peptide)
peptide: [NMeK]LTCLASYCWLF
modifications: cysteine pairing not given here
B22: ALTCLAAYCALF (peptide)
peptide: ALTCLAAYCALF
B23: ALTCLASYCWLF (peptide)
peptide: ALTCLASYCWLF
B24: CKTYFWKpGNIMVTFC-PEG12-Lys(PEG2-Biotin)-PEG12-rRAPGKLTCLASYCWLFWTGIA (peptide)
peptide: CKTYFWK[dP]GNIMVTFC[PEG12′]K([PEG2″-Biotin])[PEG12′][dR]RAPGKLTCLASYCWLFWTGIA
modifications: cysteine pairing not given here
B25: KLTCLASYC-MeTrp-LF (peptide)
peptide: KLTCLASYC[NMeW]LF
modifications: cysteine pairing not given here
B26: KLTCLAsYCWLF (peptide)
peptide: KLTCLA[dS]YCWLF
modifications: cysteine pairing not given here
B27: CLASYCWLF (peptide)
peptide: CLASYCWLF
B28: TCLASYCWLF (peptide)
peptide: TCLASYCWLF
B29: KLT-Glu-LASY-Orn-WLF (peptide)
peptide: KLTELASY[Orn]WLF
modifications: not fully specified; printed as KLT-Glu-LASY-Orn-WLF
B30: KLTCLAS-MeTyr-CWLF (peptide)
peptide: KLTCLAS[NMeY]CWLF
modifications: cysteine pairing not given here
B31: KLTCLASYCW-MeLeu-F (peptide)
peptide: KLTCLASYCW[NMeL]F
modifications: cysteine pairing not given here
B32: KLT-Pen-LASYCWLF (peptide)
peptide: KLTXLASYCWLF
modifications: not fully specified; Pen 4
B33: KLTCLASYCALF (peptide)
peptide: KLTCLASYCALF
B34: kLTCLASYCWLF (peptide)
peptide: [dK]LTCLASYCWLF
modifications: not fully specified; cysteine pairing not given here
B35: KLACLASYCWLF (peptide)
peptide: KLACLASYCWLF
B36: KLTCLA-MeSer-YCWLF (peptide)
peptide: KLTCLA[NMeS]YCWLF
modifications: cysteine pairing not given here
B37: KKLTCLASYCWLF (peptide)
peptide: KKLTCLASYCWLF
B38: KLT-Glu-LASY-Dab-WLF (peptide)
peptide: KLTELASY[Dab]WLF
modifications: not fully specified; printed as KLT-Glu-LASY-Dab-WLF
B39: KLTCAASYCWLF (peptide)
peptide: KLTCAASYCWLF
B40: KLTCLASYcWLF (peptide)
peptide: KLTCLASY[dC]WLF
modifications: cysteine pairing not given here
B41: KLTCLASYCWLA (peptide)
peptide: KLTCLASYCWLA
B42: aigtwflwcysalctlkgparr (retro-inverso) (peptide)
peptide: [dA][dI]G[dT][dW][dF][dL][dW][dC][dY][dS][dA][dL][dC][dT][dL][dK]G[dP][dA][dR][dR]
modifications: cysteine pairing not given here; also: retro-inverso
B43: KLTCLASYCWLf (peptide)
peptide: KLTCLASYCWL[dF]
modifications: cysteine pairing not given here
B44: rrapgkltclasycwlfwtgia (inverso) (peptide)
peptide: [dR][dR][dA][dP]G[dK][dL][dT][dC][dL][dA][dS][dY][dC][dW][dL][dF][dW][dT]G[dI][dA]
modifications: not fully specified; printed as rrapgkltclasycwlfwtgia (inverso); cysteine pairing not given here
B45: KLTCLASYAWLF (peptide)
peptide: KLTCLASYAWLF
B46: KLT-Lys-LASY-Glu-WLF (peptide)
peptide: KLTKLASYEWLF
B47: KLTCLASyCWLF (peptide)
peptide: KLTCLAS[dY]CWLF
modifications: not fully specified (bridges); printed as KLTCLASyCWLF; cysteine pairing not given here
B48: KLTCLASYCW (peptide)
peptide: KLTCLASYCW
B49: KATCLASYCWLF (peptide)
peptide: KATCLASYCWLF
B50: KLT-Dap-LASY-Glu-WLF (peptide)
peptide: KLT[Dap]LASYEWLF
modifications: not fully specified; printed as KLT-Dap-LASY-Glu-WLF

target: human Factor IXa (human, UniProt P00740 47-191; P00740 227-461); assay: cell-based or functional assay

| Binder | EC50 [µM], FXa generation assay [µM] | EC50 [µM], FXa generation assay with hFIXa [µM] |
| --- | --- | --- |
| B1 | > 5 |  |
| B2 |  | < 0.5 |
| B3 | > 20 |  |
| B4 | > 5 |  |
| B5 | > 20 |  |
| B6 | < 0.5 |  |
| B7 | < 0.5 |  |
| B8 | < 0.5 |  |
| B9 | > 20 |  |
| B10 | > 1 |  |
| B11 | > 5.8 |  |
| B12 | < 0.5 |  |
| B13 | < 0.5 |  |
| B14 | < 0.5 |  |
| B15 | > 1 |  |
| B16 | > 1 |  |
| B17 | > 1 |  |
| B18 | > 1 |  |
| B19 | > 15 |  |
| B20 | > 20 |  |
| B21 | < 0.5 |  |
| B22 | > 1 |  |
| B23 | > 1 |  |
| B24 | > 20 |  |
| B25 | > 20 |  |

| Binder | EC50 [µM], FXa generation assay [µM] | EC50 [µM], FXa generation assay with hFIXa [µM] |
| --- | --- | --- |
| B26 | > 1 |  |
| B27 | > 20 |  |
| B28 | < 0.5 |  |
| B29 | < 0.5 |  |
| B30 | > 20 |  |
| B31 | > 1 |  |
| B32 | > 20 |  |
| B33 | > 1 |  |
| B34 | < 0.5 |  |
| B35 | < 0.5 |  |
| B36 | > 20 |  |
| B37 | < 0.5 |  |
| B38 | > 1 |  |
| B39 | < 0.5 |  |
| B40 | > 1 |  |
| B41 | < 0.5 |  |
| B42 | > 1 |  |
| B43 | > 1 |  |
| B44 | < 0.5 |  |
| B45 | > 1 |  |
| B46 | < 0.5 |  |
| B47 | > 5 |  |
| B48 | > 10 |  |
| B49 | < 0.5 |  |
| B50 | < 0.5 |  |
